# Data taken from paper PMC6340141.
# T1: native KCC2 (neuron-specific K+-Cl- cotransporter) (mouse (endogenous in mouse brain)), Q91V14
# T1 chain: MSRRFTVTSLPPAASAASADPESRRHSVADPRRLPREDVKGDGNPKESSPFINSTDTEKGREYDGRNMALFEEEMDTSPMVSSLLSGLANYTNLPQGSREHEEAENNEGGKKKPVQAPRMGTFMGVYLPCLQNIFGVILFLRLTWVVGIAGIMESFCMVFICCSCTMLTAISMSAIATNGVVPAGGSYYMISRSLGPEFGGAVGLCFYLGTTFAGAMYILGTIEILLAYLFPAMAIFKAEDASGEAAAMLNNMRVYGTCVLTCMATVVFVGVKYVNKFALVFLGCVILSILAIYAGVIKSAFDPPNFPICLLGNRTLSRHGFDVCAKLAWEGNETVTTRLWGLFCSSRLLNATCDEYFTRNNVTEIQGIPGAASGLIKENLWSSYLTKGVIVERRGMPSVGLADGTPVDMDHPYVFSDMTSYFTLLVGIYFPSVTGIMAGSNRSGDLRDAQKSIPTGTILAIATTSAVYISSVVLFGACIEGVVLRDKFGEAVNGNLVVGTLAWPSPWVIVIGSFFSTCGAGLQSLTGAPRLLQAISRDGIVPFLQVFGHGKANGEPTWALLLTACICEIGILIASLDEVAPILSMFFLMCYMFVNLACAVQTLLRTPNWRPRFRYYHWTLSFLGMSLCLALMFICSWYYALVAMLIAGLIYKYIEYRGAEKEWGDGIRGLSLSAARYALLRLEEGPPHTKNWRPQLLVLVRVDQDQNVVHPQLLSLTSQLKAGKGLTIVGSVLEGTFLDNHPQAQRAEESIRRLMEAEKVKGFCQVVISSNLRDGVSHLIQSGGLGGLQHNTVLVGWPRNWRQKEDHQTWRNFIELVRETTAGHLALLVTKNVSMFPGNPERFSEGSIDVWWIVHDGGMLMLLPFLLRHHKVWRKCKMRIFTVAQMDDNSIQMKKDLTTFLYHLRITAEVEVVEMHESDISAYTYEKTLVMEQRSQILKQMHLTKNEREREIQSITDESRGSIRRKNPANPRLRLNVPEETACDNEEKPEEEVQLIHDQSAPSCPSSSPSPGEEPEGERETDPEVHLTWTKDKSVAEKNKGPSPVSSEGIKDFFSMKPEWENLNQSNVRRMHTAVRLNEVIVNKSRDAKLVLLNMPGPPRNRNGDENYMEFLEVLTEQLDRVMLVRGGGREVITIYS
# B1: native KCC2 (neuron-specific K+-Cl- cotransporter), Q91V14 1-1138 (natural protein)
# chain: T1 chain
# Target: T1, native KCC2 (neuron-specific K+-Cl- …)
# Assay: native gel or EMSA
# Settings: remark: other sources report otherwise
binder,measurement,value
B1,stoichiometry N,4
